Where only a bound is given, the exact number is not on record here.

Holding throughout (conditions): tags: Cy3-labelled (NHS ester); label: 3' pCp-Cy5; hairpin
Data set [1] has as its target T1, U1A (Homo sapiens, UniProt P09012 P09012:2-282). Description: RNA microarray, 40 nM U1A. On the procedure: (§1) To a 1.5-mL tube, 120 ng of Cy5-RNA probe PoP_00001 Kt, 120 ng of Cy5-RNA probe PoP_00001, 00008, 00010, 00011, 00014, 00016, PoP_00018-28 and ultrapure water were mixed and controlled to have a volume of 18 μL. Hereinafter, the same operation as described in Section 8 above was performed. Binding of the RNA probe to a target spot was confirmed based on Cy5 signal.
(§2) Subsequently, to the gasket slide on the hybridization chamber, 70 μL of 40 nM Cy3-U1A was added and a microarray slide having RNA probes bound thereto was mounted and then a hybridization chamber was assembled. Incubation was performed at room temperature for 30 minutes. The hybridization chamber was made into pieces and the microarray slide was taken out, separated from the gasket in the TBSMT buffer, washed with TBSMT buffer at room temperature for 5 minutes, and further rinsed with TBSM buffer. Thereafter, the dried microarray slide was scanned.

Data set [2] deals with T2, L7Ae (UniProt O29494 O29494:1-119). Description: EMSA; 50 mM HEPES-KOH pH 7.8, 100 mM KCl, on ice. As for the experimental part: Specific binding of DNA Barcode (bc25mer_00001) and Cy5-RNA probe (PoP_00001_Kt), and further, binding of Cy5-RNA probe (PoP_00001_Kt, PoP_00024_hsa-let-7e) and L7Ae were confirmed by EMSA as follows. First, bc25mer_00001 and PoP_00001_Kt or PoP_00024_hsa-let-7e were mixed and annealed. The composition of a reaction solution (11 μL) was as follows: 500 nM bc25mer_00001, 500 nM Cy5-RNA probe, 1× Annealing Buffer (50 mM HEPES-KOH (ph7.8), 100 mM KCl). The reaction was incubated at 95° C. for 5 minutes and at room temperature for 10 minutes. Subsequently, the DNA/RNA complex annealed and L7Ae were bound by mixing them as follows. The composition of a reaction solution (15 μL) was as follows: 0, 100, 200, 500 or 1000 nM Cy3-L7Ae, 50 nM DNA/RNA complex and 1× Annealing Buffer. Incubation was performed on ice for one hour. To the solution, 3.75 μL of a 5× dye solution (0.25% bromophenol blue, 30% glycerol) was added and mixed. The mixture solution (10 μL) was overlaid on non-denatured 15% polyacrylamide (1/30 bis-acrylamide) gel and electrophoresis was performed at 4° C. and 200 V for 60 minutes. After the electrophoresis, the gel was stained with SYBR Green I and II at room temperature for 15 minutes, and scanned by Typhoon FLA 7000 (GE Healthcare) in SYBR Green mode (600 pmt). Bands were confirmed.

The target of data set [3] is T1, U1A. Briefly: RNA microarray, signal at least 10-fold below U1A2/U1A. As for the experimental part: as §1, §2
Data set [4] concerns the target T2, L7Ae. Briefly: RNA microarray, 5 nM L7Ae, 300 mM NaCl, 5 mM MgCl2. As for the experimental part: To a 1.5 mL tube, 120 ng of Cy5-RNA probe PoP_00001_Kt, 120 ng of Cy5-RNA probe PoP_00018-28 and ultrapure water were mixed and controlled to have a volume of 18 μL. To this, 4.5 μL of 10× Gene Expression Blocking Agent (Agilent) and 22.5 μL of 2×Hi-RPM Hybridization Buffer (Agilent) were added and mixed. The mixture solution was incubated at 100° C. for 5 minutes and subsequently on ice for 5 minutes. On the lower frame of a hybridization chamber (Agilent), a gasket slide (Agilent) was mounted. In a single well of the gasket slide, the mixture solution (45 μL) was added and the well was covered with a DNA Barcode microarray slide and then a hybridization chamber was assembled. The hybridization chamber was set at a rotor (Agilent) of a hybridization oven of 55° C. Incubation was performed for 20 hours at a rotation rate of 20 per minute. The hybridization chamber was taken out from the oven and made into pieces. […]
Subsequently, to the gasket slide on the hybridization chamber, 70 μL of 5 nM Cy3-L7Ae (controlled in concentration with TBSMT buffer (Tris-HCl 20 mM, NaCl 300 mM, 5 mM MgCl₂, 0.1% Tween-20)) was added and then a microarray slide scanned was mounted. […] In addition, Cy3 signal, which was 1.5 times as strong as that at PoP_00001_Kt, was detected at a spot of PoP_00024_hsa-let-7e.

Data set [5] addresses T2, L7Ae. Description: RNA microarray, no Cy3 signal. As for the experimental part: The mixture solution was incubated at 100° C. for 5 minutes and subsequently on ice for 5 minutes. On the lower frame of a hybridization chamber (Agilent), a gasket slide (Agilent) was mounted. In a single well of the gasket slide, the mixture solution (45 μL) was added and the well was covered with a DNA Barcode microarray slide and then a hybridization chamber was assembled. The hybridization chamber was set at a rotor (Agilent) of a hybridization oven of 55° C. Incubation was performed for 20 hours at a rotation rate of 20 per minute. The hybridization chamber was taken out from the oven and made into pieces. The microarray slide was taken out, separated from the gasket in Gene Expression Wash Buffer 1 (Agilent), washed with Gene Expression Wash Buffer 1 at room temperature for 5 minutes and further washed with Gene Expression Wash Buffer 2 (Agilent) at 37° C. for 5 minutes. The dried microarray slide was scanned by a microarray scanner (Agilent) in the mode of 8×15K, c scan, AglilentHD_miRNA, two color, XDR Hi and Lo (0.05). In this manner, binding of an RNA probe to a target spot was confirmed based on Cy5 signal.
Subsequently, to the gasket slide on the hybridization chamber, 70 μL of 5 nM Cy3-L7Ae (controlled in concentration with TBSMT buffer (Tris-HCl 20 mM, NaCl 300 mM, 5 mM MgCl₂, 0.1% Tween-20)) was added and then a microarray slide scanned was mounted. A hybridization chamber was assembled and incubation was performed at room temperature for 30 minutes. The hybridization chamber was made into pieces and the microarray slide was taken out, separated from the gasket in the TBSMT buffer, washed with TBSMT buffer at room temperature for 5 minutes, and further washed with TBSM buffer (Tris-HCl 20 mM, NaCl 300 mM, 5 mM MgCl₂) at room temperature for 5 minutes. The dried microarray slide was scanned again. […] In addition, Cy3 signal, which was 1.5 times as strong as that at PoP_00001_Kt, was detected at a spot of PoP_00024_hsa-let-7e. No Cy3 signal was detected at spots of other 10 probes.

T2 sequence (O29494 whole entry, one chain of several): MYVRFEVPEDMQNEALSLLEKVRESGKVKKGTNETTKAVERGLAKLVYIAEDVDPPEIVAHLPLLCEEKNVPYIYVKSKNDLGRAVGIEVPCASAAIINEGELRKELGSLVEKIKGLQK
T1 sequence (P09012 2-282, one chain of several): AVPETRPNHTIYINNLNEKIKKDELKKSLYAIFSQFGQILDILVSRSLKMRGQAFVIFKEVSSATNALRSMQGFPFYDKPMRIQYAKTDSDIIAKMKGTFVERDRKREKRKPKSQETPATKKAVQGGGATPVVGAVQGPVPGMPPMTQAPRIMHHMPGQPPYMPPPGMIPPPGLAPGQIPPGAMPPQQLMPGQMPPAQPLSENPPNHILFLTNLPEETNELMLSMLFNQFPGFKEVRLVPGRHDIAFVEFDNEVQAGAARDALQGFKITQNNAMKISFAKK

B1: PoP_00010_U1A2 (ssRNA)
RNA: GGUGUCCAGAUUAGGCGUGCCAUACCGUUUGGGAAUAUAGUGCCGAGUCCUUCGGGACAUUGCACCGGCGCUAUAUUCCCGGA
Consider B1, for which the binding signal with U1A [1] is ≥ 10 fold Cy3 signal vs other spots.

B2: PoP_00014_U1A (ssRNA)
RNA: GAUAGAGCCAACUAUGCGCAGUUACCGUUUGGGAAUAUAGUGCCAUUGCACUCCGGCGCUAUAUUCCCGGA
As for B2, the binding signal with U1A [1] was ≥ 10 fold Cy3 signal vs other spots.

B3: PoP_00024_hsa-let-7e loop (ssRNA)
RNA: GACGGGAUCCAAGCGCUCGUAAUAGCGGUGUACGAAGUUUCAGCAUAGUUGAGGAGGACACCCAAGGAGAUCACUAUGCUGAAGCUUCGUGCAC
As for B3, the binding signal with L7Ae [2] is about 10 fold stronger than Kt; with L7Ae [4], 1.5 fold Cy3 signal vs Kt. Besides, the binding result in the data set with U1A [3] is reported as “no binding”.

B4: PoP_00023_hsa-let-7d loop (ssRNA)
RNA: GCAAUAUCAUCGCGUGUUAAGGUGGCGGUGUACGAAGUUUCAGCAUAGUUUUAGGGCAGGGAUUUUGCCCACAAGGAGGUAACUAUGCUGAAGCUUCGUGCAC
Regarding B4, the binding result with L7Ae [5] and with U1A [3] was “no binding” throughout.

The record behind these values is patent US20170022545, “RNA MICROARRAY FOR DETECTING INTERACTION BETWEEN PROTEIN AND RNA CONTAINING A HIGHER-ORDER STRUCTURE” (KYOTO UNIVERSITY, published 2017).
